Test results as given in US20220153819A1.

Molecular target: human GITR on Jurkat/hGITR/hCD20 cells (human) (UniProt Q9Y5U5)
Experiment: flow cytometry on Jurkat/hGITR/hCD20 cells

Sequence of human GITR on Jurkat/hGITR/hCD20 cells (human) (Q9Y5U5 26-241): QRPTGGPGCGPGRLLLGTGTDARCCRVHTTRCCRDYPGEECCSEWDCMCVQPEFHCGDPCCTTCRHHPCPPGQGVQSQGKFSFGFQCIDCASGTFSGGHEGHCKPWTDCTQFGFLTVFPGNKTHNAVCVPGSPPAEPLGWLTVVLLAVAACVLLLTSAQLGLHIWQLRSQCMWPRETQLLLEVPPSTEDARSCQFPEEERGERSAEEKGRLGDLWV

Substance: REGN1932, IgG1 isotype control antibody
- Maximum MFI: 39900 MFI
